# Biological target: T1, Clostridium difficile toxin A (Clostridioides difficile …, UniProt P16154)
# T1 construct: also called TcdA
# Experiment: SPR
# Conditions: both partners purified
Binder,Kd [nM],koff [s⁻¹],kon [M⁻¹ s⁻¹]
"A26.8 VHH Q101K (VHH, source: E. coli TG1, periplasmic extract, purified (IMAC, SEC)) VHH: QVKLEESGGGLVQAGGSLRLSCAASERTFSRYPVAWFRQAPGAEREFVAVISSTGTSTYYADSVKGRFTISRDNAKVTVYLQMNNLKREDTAVYFCAVNSKRTRLQDPNEYDYWGQGTQVTVSS",7.6,0.02,2.7e+06
"A26.8 VHH T56R, T103R (VHH, also called lead double mutant; source: E. coli TG1, periplasmic extract, purified (IMAC, SEC)) VHH: QVKLEESGGGLVQAGGSLRLSCAASERTFSRYPVAWFRQAPGAEREFVAVISSTGRSTYYADSVKGRFTISRDNAKVTVYLQMNNLKREDTAVYFCAVNSQRRRLQDPNEYDYWGQGTQVTVSS",2.3,0.019,8.3e+06
"A26.8 VHH S53R (VHH, source: E. coli TG1, periplasmic extract, purified (IMAC, SEC)) VHH: QVKLEESGGGLVQAGGSLRLSCAASERTFSRYPVAWFRQAPGAEREFVAVISRTGTSTYYADSVKGRFTISRDNAKVTVYLQMNNLKREDTAVYFCAVNSQRTRLQDPNEYDYWGQGTQVTVSS",224,–,–
"A26.8 VHH T56R, T103M (VHH, source: E. coli TG1, periplasmic extract, purified (IMAC, SEC)) VHH: QVKLEESGGGLVQAGGSLRLSCAASERTFSRYPVAWFRQAPGAEREFVAVISSTGRSTYYADSVKGRFTISRDNAKVTVYLQMNNLKREDTAVYFCAVNSQRMRLQDPNEYDYWGQGTQVTVSS",4.8,0.03,6.4e+06
"A26.8 VHH T56I (VHH, source: E. coli TG1, periplasmic extract, purified (IMAC, SEC)) VHH: QVKLEESGGGLVQAGGSLRLSCAASERTFSRYPVAWFRQAPGAEREFVAVISSTGISTYYADSVKGRFTISRDNAKVTVYLQMNNLKREDTAVYFCAVNSQRTRLQDPNEYDYWGQGTQVTVSS",13.6,0.026,1.9e+06
"A26.8 VHH T103K (VHH, source: E. coli TG1, periplasmic extract, purified (IMAC, SEC)) VHH: QVKLEESGGGLVQAGGSLRLSCAASERTFSRYPVAWFRQAPGAEREFVAVISSTGTSTYYADSVKGRFTISRDNAKVTVYLQMNNLKREDTAVYFCAVNSQRKRLQDPNEYDYWGQGTQVTVSS",8.3,0.02,2.5e+06
"A26.8 VHH T56R, T103K (VHH, source: E. coli TG1, periplasmic extract, purified (IMAC, SEC)) VHH: QVKLEESGGGLVQAGGSLRLSCAASERTFSRYPVAWFRQAPGAEREFVAVISSTGRSTYYADSVKGRFTISRDNAKVTVYLQMNNLKREDTAVYFCAVNSQRKRLQDPNEYDYWGQGTQVTVSS",3.4,0.029,8.6e+06
"A26.8 VHH T103M (VHH, source: E. coli TG1, periplasmic extract, purified (IMAC, SEC)) VHH: QVKLEESGGGLVQAGGSLRLSCAASERTFSRYPVAWFRQAPGAEREFVAVISSTGTSTYYADSVKGRFTISRDNAKVTVYLQMNNLKREDTAVYFCAVNSQRMRLQDPNEYDYWGQGTQVTVSS",13.7,0.024,1.8e+06
"A26.8 VHH D107R (VHH, source: E. coli TG1, periplasmic extract, purified (IMAC, SEC)) VHH: QVKLEESGGGLVQAGGSLRLSCAASERTFSRYPVAWFRQAPGAEREFVAVISSTGTSTYYADSVKGRFTISRDNAKVTVYLQMNNLKREDTAVYFCAVNSQRTRLQRPNEYDYWGQGTQVTVSS",19,0.026,1.4e+06
"A26.8 VHH D107N (VHH, source: E. coli TG1, periplasmic extract, purified (IMAC, SEC)) VHH: QVKLEESGGGLVQAGGSLRLSCAASERTFSRYPVAWFRQAPGAEREFVAVISSTGTSTYYADSVKGRFTISRDNAKVTVYLQMNNLKREDTAVYFCAVNSQRTRLQNPNEYDYWGQGTQVTVSS",21.3,0.04,1.9e+06
"A26.8 VHH Q101K, T103R (VHH, source: E. coli TG1, periplasmic extract, purified (IMAC, SEC)) VHH: QVKLEESGGGLVQAGGSLRLSCAASERTFSRYPVAWFRQAPGAEREFVAVISSTGTSTYYADSVKGRFTISRDNAKVTVYLQMNNLKREDTAVYFCAVNSKRRRLQDPNEYDYWGQGTQVTVSS",4.2,0.023,5.5e+06
"A26.8 VHH E110Q (VHH, source: E. coli TG1, periplasmic extract, purified (IMAC, SEC)) VHH: QVKLEESGGGLVQAGGSLRLSCAASERTFSRYPVAWFRQAPGAEREFVAVISSTGTSTYYADSVKGRFTISRDNAKVTVYLQMNNLKREDTAVYFCAVNSQRTRLQDPNQYDYWGQGTQVTVSS",33.6,0.07,2.1e+06
"A26.8 VHH T58K (VHH, source: E. coli TG1, periplasmic extract, purified (IMAC, SEC)) VHH: QVKLEESGGGLVQAGGSLRLSCAASERTFSRYPVAWFRQAPGAEREFVAVISSTGTSKYYADSVKGRFTISRDNAKVTVYLQMNNLKREDTAVYFCAVNSQRTRLQDPNEYDYWGQGTQVTVSS",13.5,0.033,2.5e+06
"A26.8 VHH T56R, Q101K (VHH, source: E. coli TG1, periplasmic extract, purified (IMAC, SEC)) VHH: QVKLEESGGGLVQAGGSLRLSCAASERTFSRYPVAWFRQAPGAEREFVAVISSTGRSTYYADSVKGRFTISRDNAKVTVYLQMNNLKREDTAVYFCAVNSKRTRLQDPNEYDYWGQGTQVTVSS",4.1,0.05,1.24e+07
"A26.8 VHH T56R, Q101K, T103R (VHH, also called lead triple mutant; source: E. coli TG1, periplasmic extract, purified (IMAC, SEC)) VHH: QVKLEESGGGLVQAGGSLRLSCAASERTFSRYPVAWFRQAPGAEREFVAVISSTGRSTYYADSVKGRFTISRDNAKVTVYLQMNNLKREDTAVYFCAVNSKRRRLQDPNEYDYWGQGTQVTVSS",2,0.024,1.23e+07
"A26.8 VHH Q106Y (VHH, source: E. coli TG1, periplasmic extract, purified (IMAC, SEC)) VHH: QVKLEESGGGLVQAGGSLRLSCAASERTFSRYPVAWFRQAPGAEREFVAVISSTGTSTYYADSVKGRFTISRDNAKVTVYLQMNNLKREDTAVYFCAVNSQRTRLYDPNEYDYWGQGTQVTVSS",2320,–,–
"A26.8 VHH R104W (VHH, source: E. coli TG1, periplasmic extract, purified (IMAC, SEC)) VHH: QVKLEESGGGLVQAGGSLRLSCAASERTFSRYPVAWFRQAPGAEREFVAVISSTGTSTYYADSVKGRFTISRDNAKVTVYLQMNNLKREDTAVYFCAVNSQRTWLQDPNEYDYWGQGTQVTVSS",165,0.055,300000
"A26.8 VHH T56R, Q101K, T103M (VHH, source: E. coli TG1, periplasmic extract, purified (IMAC, SEC)) VHH: QVKLEESGGGLVQAGGSLRLSCAASERTFSRYPVAWFRQAPGAEREFVAVISSTGRSTYYADSVKGRFTISRDNAKVTVYLQMNNLKREDTAVYFCAVNSKRMRLQDPNEYDYWGQGTQVTVSS",2.9,0.03,1.04e+07
"A26.8 VHH T54R (VHH, source: E. coli TG1, periplasmic extract, purified (IMAC, SEC)) VHH: QVKLEESGGGLVQAGGSLRLSCAASERTFSRYPVAWFRQAPGAEREFVAVISSRGTSTYYADSVKGRFTISRDNAKVTVYLQMNNLKREDTAVYFCAVNSQRTRLQDPNEYDYWGQGTQVTVSS",13.2,0.044,3.6e+06
"A26.8 VHH Q106L (VHH, source: E. coli TG1, periplasmic extract, purified (IMAC, SEC)) VHH: QVKLEESGGGLVQAGGSLRLSCAASERTFSRYPVAWFRQAPGAEREFVAVISSTGTSTYYADSVKGRFTISRDNAKVTVYLQMNNLKREDTAVYFCAVNSQRTRLLDPNEYDYWGQGTQVTVSS",612,–,–
"A26.8 VHH T54W (VHH, source: E. coli TG1, periplasmic extract, purified (IMAC, SEC)) VHH: QVKLEESGGGLVQAGGSLRLSCAASERTFSRYPVAWFRQAPGAEREFVAVISSWGTSTYYADSVKGRFTISRDNAKVTVYLQMNNLKREDTAVYFCAVNSQRTRLQDPNEYDYWGQGTQVTVSS",35,0.056,1.6e+06
"A26.8 VHH Q106F (VHH, source: E. coli TG1, periplasmic extract, purified (IMAC, SEC)) VHH: QVKLEESGGGLVQAGGSLRLSCAASERTFSRYPVAWFRQAPGAEREFVAVISSTGTSTYYADSVKGRFTISRDNAKVTVYLQMNNLKREDTAVYFCAVNSQRTRLFDPNEYDYWGQGTQVTVSS",5130,–,–
"A26.8 VHH T56R, Q101K, T103K (VHH, source: E. coli TG1, periplasmic extract, purified (IMAC, SEC)) VHH: QVKLEESGGGLVQAGGSLRLSCAASERTFSRYPVAWFRQAPGAEREFVAVISSTGRSTYYADSVKGRFTISRDNAKVTVYLQMNNLKREDTAVYFCAVNSKRKRLQDPNEYDYWGQGTQVTVSS",3.2,0.047,1.47e+07
"A26.8 VHH T56R (VHH, source: E. coli TG1, periplasmic extract, purified (IMAC, SEC)) VHH: QVKLEESGGGLVQAGGSLRLSCAASERTFSRYPVAWFRQAPGAEREFVAVISSTGRSTYYADSVKGRFTISRDNAKVTVYLQMNNLKREDTAVYFCAVNSQRTRLQDPNEYDYWGQGTQVTVSS",6.2,0.027,4.8e+06
"A26.8 VHH D107Y (VHH, source: E. coli TG1, periplasmic extract, purified (IMAC, SEC)) VHH: QVKLEESGGGLVQAGGSLRLSCAASERTFSRYPVAWFRQAPGAEREFVAVISSTGTSTYYADSVKGRFTISRDNAKVTVYLQMNNLKREDTAVYFCAVNSQRTRLQYPNEYDYWGQGTQVTVSS",44,0.071,1.6e+06
"A26.8 VHH N109R (VHH, source: E. coli TG1, periplasmic extract, purified (IMAC, SEC)) VHH: QVKLEESGGGLVQAGGSLRLSCAASERTFSRYPVAWFRQAPGAEREFVAVISSTGTSTYYADSVKGRFTISRDNAKVTVYLQMNNLKREDTAVYFCAVNSQRTRLQDPREYDYWGQGTQVTVSS",13.9,0.027,2e+06
"A26.8 VHH Q106W (VHH, source: E. coli TG1, periplasmic extract, purified (IMAC, SEC)) VHH: QVKLEESGGGLVQAGGSLRLSCAASERTFSRYPVAWFRQAPGAEREFVAVISSTGTSTYYADSVKGRFTISRDNAKVTVYLQMNNLKREDTAVYFCAVNSQRTRLWDPNEYDYWGQGTQVTVSS",1480,–,–
"A26.8 VHH T54Y (VHH, source: E. coli TG1, periplasmic extract, purified (IMAC, SEC)) VHH: QVKLEESGGGLVQAGGSLRLSCAASERTFSRYPVAWFRQAPGAEREFVAVISSYGTSTYYADSVKGRFTISRDNAKVTVYLQMNNLKREDTAVYFCAVNSQRTRLQDPNEYDYWGQGTQVTVSS",38.9,0.069,1.8e+06
"A26.8 VHH T103R (VHH, source: E. coli TG1, periplasmic extract, purified (IMAC, SEC)) VHH: QVKLEESGGGLVQAGGSLRLSCAASERTFSRYPVAWFRQAPGAEREFVAVISSTGTSTYYADSVKGRFTISRDNAKVTVYLQMNNLKREDTAVYFCAVNSQRRRLQDPNEYDYWGQGTQVTVSS",5.3,0.014,2.7e+06
"A26.8 VHH T103W (VHH, source: E. coli TG1, periplasmic extract, purified (IMAC, SEC)) VHH: QVKLEESGGGLVQAGGSLRLSCAASERTFSRYPVAWFRQAPGAEREFVAVISSTGTSTYYADSVKGRFTISRDNAKVTVYLQMNNLKREDTAVYFCAVNSQRWRLQDPNEYDYWGQGTQVTVSS",16.3,0.036,2.4e+06

# Reference: article PMC5797146 (Scientific Reports, 2018)
